Test results from patent publication US20080039616A1.

Target: FLAG® HA BAP fusion protein [phosphatase: P00634]
Experiment: immunoprecipitation of purified FLAG HA BAP in 3 extraction buffers, blot with anti-HA-peroxidase

- protein recovery (% of input protein) (% of input protein): > 70
Substance: ANTI-FLAG® affinity resin (antibody)
